Experimental data taken from patent publication US20070015231A1, “Assay for protein tyrosine phosphatases” (CEPTYR, Inc., priority 2000, published 2007).
Where a chain is given by its changes, count along the chain named. Names and notes keep the numbering of the source. Read-outs that look alike come from different tables or passages of the source. Each block holds one molecule with its values, some of them ahead of it. Square brackets hold non-standard residues; d marks the D form. Ends that are not written are not given here. pY = N[C@@H](Cc1ccc(OP(=O)(O)O)cc1)C(=O)O

Assays:
PTP1B = molecular target: T1, PTP1B (Homo sapiens, UniProt P18031); test: PTP catalytic assay of F-ERP-P dephosphorylation with alternate reaction terminator molecules (FP); assay type: biochemical
T1 construct: PTP1B proteins (wild type and mutant forms) comprising amino acids 1-321 were expressed in E. coli; made in house; host or cells: E. coli
T1 sequence (P18031 1-321): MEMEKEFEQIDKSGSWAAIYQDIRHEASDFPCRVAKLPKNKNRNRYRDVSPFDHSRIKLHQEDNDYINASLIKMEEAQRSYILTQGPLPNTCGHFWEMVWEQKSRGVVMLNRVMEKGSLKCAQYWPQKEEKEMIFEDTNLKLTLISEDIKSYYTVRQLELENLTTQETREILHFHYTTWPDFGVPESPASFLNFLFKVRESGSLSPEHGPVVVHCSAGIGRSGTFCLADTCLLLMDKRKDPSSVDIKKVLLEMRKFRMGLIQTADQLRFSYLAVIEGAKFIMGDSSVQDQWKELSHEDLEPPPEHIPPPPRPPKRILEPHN
Description: The ability of each reaction terminator molecule also was assessed in the presence and absence of vanadate (a well known, nonspecific PTP inhibitor).
Assays were set up in black polypropylene plates with 20 μl of 25 mM Tris HCl pH 7.5 and 20 μl of 300 nM F-ERP-P in 25 mM Tris HCl pH 7.5, 1 mM EDTA, 1 mM DTT, 0.25 mg/ml ovalbumin (TEOD buffer). […] Plates were read using the Polarstar instrument from BMG Lab Technologies using the following settings:
As in Example 3, wells were set up to measure background fluorescence to allow proper calculation of mP values and other wells were set up without addition of terminator reagent to assess the minimum polarization value of the unbound fluorescent phosphotyrosyl peptide (F-ERP-P).

C215S PTP1B = molecular target: T2, C215S PTP1B (Homo sapiens, UniProt P18031, C215S); test: Inhibition of fluorescent EGF receptor peptide binding to CS substrate binding mutant (FP); conditions: Table 3; fluorescein-labeled EGF receptor peptide
T2 construct: PTP1B proteins (wild type and mutant forms) comprising amino acids 1-321 were expressed in E. coli; made in house; host or cells: E. coli
T2 sequence (P18031 1-321 C215S): T1 sequence (P18031 1-321) with C215S
Description: (§1) To the test agents was added 40 μl of 3 nM CS or DA binding mutant of PTP1B in Assay Buffer. Plates were shaken for 30 sec to mix the two solutions. After another 12.5 minutes 40 μl of 3 nM fluorescein-labeled EGF receptor peptide was added and the solutions mixed for 30 sec. After 12.5 minutes of incubation the plates were read as described in Example 3.

D181A PTP1B = molecular target: T3, D181A PTP1B (Homo sapiens, UniProt P18031, D181A); test: Inhibition of fluorescent EGF receptor peptide binding to DA substrate binding mutant (FP)
T3 construct: PTP1B proteins (wild type and mutant forms) comprising amino acids 1-321 were expressed in E. coli; made in house; host or cells: E. coli
T3 sequence (P18031 1-321 D181A): T1 sequence (P18031 1-321) with D181A
Description: as §1

PTP1B(C215S) = molecular target: T4, PTP1B(C215S) (Homo sapiens, UniProt P18031, C215S); test: PTP-1B (CS) binding assay: fluorescence polarization binding of fluorescein-labeled phosphotyrosyl peptides; conditions: Table 1; midpoint of bound/unbound transition (apparent Kd)
T4 construct: PTP1B proteins (wild type and mutant forms) comprising amino acids 1-321 were expressed in E. coli; made in house; host or cells: E. coli
T4 sequence (P18031 1-321 C215S): T1 sequence (P18031 1-321) with C215S
Description: (§2) Two assay parameters were measured: (1) the dynamic range of the signal (i.e. the difference between polarization values of the bound and the unbound fluorescent substrate) and (2) the midpoint of the transition between bound and unbound that represents the apparent Kd (i.e. affinity) of each binding mutant for each peptide.
(§3) Assays were set up at room temperature in black polypropylene 96 well microtiter plates (Polyfiltronics, Whatman, U. K.) by the sequential addition of 40 μl of Assay Buffer, 40 μl of diluted binding protein and 40 μl of 0.3 nM fluorescein-labeled substrate peptide. After 15 min plates were read in a Criterion Analyst™ (LJL BioSystems, Inc., Sunnyvale, Calif.) in fluorescence polarization detection mode using the parameters listed as follows:
(§4) To obtain values for background fluorescence, assays were set up as above except the fluorescein-labeled substrate was replaced with Assay Buffer. To determine the fluorescence polarization values for the unbound substrate peptide, assays were set up as above except that the 40 μl of diluted binding protein was replaced with Assay Buffer.

PTP1B(D181A) = molecular target: T5, PTP1B(D181A) (Homo sapiens, UniProt P18031, D181A); test: PTP-1B (DA) binding assay: fluorescence polarization binding of fluorescein-labeled phosphotyrosyl peptides; conditions: Table 2; midpoint of bound/unbound transition (apparent Kd)
T5 construct: PTP1B proteins (wild type and mutant forms) comprising amino acids 1-321 were expressed in E. coli; made in house; host or cells: E. coli
T5 sequence (P18031 1-321 D181A): T1 sequence (P18031 1-321) with D181A
Description: as §2, §3, §4

LAR = LAR (Homo sapiens, UniProt P10586); conditions: insulin receptor 1142-1152 peptide, pTyr1146; cited from earlier work
[1] = molecular target: fluorescein-labeled EGF receptor derived phosphopeptide D-A-D-E-pY-L-NH2 (human); test: fluorescence polarization, mutant PTP titrated against fluorescein-labeled peptide in solution
[2] = molecular target: fluorescein-labeled insulin receptor derived phosphopeptide T-R-D-I-pY-E-T-D-Y-Y-R (human); test: as above
[3] = molecular target: fluorescein-labeled EGF receptor derived phosphopeptide D-A-D-E-pY-L-NH2 (human); test: fluorescence polarization, mutant PTP titrated against fluorescein-labeled peptide in solution (midpoint = apparent Kd)
[4] = molecular target: fluorescein-labeled insulin receptor derived phosphopeptide T-R-D-I-pY-E-T-D-Y-Y-R (human); test: as above
CD45 = molecular target: T6, CD45 (Homo sapiens, UniProt P08575); conditions: p56lck residues 500-509 peptide; read-out: Km toward CD45; cited from earlier work
T6 sequence (P08575 26-1306): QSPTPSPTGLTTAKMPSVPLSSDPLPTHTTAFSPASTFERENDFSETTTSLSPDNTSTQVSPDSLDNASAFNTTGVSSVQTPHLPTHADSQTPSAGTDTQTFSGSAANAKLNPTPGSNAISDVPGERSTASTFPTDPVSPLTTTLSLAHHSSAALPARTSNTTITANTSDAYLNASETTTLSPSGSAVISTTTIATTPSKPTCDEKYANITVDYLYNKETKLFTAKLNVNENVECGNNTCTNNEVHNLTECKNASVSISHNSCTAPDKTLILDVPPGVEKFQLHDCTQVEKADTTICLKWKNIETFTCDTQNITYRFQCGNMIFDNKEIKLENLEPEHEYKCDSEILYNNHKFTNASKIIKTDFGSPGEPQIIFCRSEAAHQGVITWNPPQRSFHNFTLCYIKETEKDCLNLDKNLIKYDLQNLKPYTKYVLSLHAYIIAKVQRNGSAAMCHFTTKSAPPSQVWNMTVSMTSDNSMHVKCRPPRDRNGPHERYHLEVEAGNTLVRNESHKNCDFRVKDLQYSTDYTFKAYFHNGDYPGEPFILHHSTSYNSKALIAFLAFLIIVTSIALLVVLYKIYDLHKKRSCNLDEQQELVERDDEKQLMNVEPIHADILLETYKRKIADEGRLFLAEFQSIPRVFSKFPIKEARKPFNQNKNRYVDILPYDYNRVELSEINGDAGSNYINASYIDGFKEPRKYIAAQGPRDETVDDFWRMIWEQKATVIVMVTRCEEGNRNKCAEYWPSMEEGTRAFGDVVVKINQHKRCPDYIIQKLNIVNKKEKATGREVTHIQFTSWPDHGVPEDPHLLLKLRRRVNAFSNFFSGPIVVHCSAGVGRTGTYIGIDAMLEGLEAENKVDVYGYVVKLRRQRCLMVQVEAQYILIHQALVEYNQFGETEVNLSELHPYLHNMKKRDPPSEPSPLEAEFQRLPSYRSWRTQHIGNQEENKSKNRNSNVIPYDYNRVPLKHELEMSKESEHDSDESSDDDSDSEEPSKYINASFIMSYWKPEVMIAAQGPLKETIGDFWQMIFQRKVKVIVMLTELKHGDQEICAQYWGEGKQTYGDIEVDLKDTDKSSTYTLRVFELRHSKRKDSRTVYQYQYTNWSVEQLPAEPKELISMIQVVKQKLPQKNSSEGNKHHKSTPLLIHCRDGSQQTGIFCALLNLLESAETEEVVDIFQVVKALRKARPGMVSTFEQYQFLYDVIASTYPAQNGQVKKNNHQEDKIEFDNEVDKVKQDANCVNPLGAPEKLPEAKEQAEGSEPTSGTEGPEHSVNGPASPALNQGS

[5] = molecular target: T7, fluorescein-labeled EGF receptor derived phosphopeptide D-A-D-E-pY-L-NH2 (not fully specified)
T7 chain: DADEYL

[6] = molecular target: fluorescein-labeled EGF receptor derived phosphopeptide D-A-D-E-pY-L-NH2 (human); test: fluorescence polarization, C215S PTP1B as reaction terminator (Polarstar reader)
[7] = Table 3, fluorescein-labeled EGF receptor peptide, read-out: D181A IC50

Sequence of LAR (P10586 30-1907, species assumed): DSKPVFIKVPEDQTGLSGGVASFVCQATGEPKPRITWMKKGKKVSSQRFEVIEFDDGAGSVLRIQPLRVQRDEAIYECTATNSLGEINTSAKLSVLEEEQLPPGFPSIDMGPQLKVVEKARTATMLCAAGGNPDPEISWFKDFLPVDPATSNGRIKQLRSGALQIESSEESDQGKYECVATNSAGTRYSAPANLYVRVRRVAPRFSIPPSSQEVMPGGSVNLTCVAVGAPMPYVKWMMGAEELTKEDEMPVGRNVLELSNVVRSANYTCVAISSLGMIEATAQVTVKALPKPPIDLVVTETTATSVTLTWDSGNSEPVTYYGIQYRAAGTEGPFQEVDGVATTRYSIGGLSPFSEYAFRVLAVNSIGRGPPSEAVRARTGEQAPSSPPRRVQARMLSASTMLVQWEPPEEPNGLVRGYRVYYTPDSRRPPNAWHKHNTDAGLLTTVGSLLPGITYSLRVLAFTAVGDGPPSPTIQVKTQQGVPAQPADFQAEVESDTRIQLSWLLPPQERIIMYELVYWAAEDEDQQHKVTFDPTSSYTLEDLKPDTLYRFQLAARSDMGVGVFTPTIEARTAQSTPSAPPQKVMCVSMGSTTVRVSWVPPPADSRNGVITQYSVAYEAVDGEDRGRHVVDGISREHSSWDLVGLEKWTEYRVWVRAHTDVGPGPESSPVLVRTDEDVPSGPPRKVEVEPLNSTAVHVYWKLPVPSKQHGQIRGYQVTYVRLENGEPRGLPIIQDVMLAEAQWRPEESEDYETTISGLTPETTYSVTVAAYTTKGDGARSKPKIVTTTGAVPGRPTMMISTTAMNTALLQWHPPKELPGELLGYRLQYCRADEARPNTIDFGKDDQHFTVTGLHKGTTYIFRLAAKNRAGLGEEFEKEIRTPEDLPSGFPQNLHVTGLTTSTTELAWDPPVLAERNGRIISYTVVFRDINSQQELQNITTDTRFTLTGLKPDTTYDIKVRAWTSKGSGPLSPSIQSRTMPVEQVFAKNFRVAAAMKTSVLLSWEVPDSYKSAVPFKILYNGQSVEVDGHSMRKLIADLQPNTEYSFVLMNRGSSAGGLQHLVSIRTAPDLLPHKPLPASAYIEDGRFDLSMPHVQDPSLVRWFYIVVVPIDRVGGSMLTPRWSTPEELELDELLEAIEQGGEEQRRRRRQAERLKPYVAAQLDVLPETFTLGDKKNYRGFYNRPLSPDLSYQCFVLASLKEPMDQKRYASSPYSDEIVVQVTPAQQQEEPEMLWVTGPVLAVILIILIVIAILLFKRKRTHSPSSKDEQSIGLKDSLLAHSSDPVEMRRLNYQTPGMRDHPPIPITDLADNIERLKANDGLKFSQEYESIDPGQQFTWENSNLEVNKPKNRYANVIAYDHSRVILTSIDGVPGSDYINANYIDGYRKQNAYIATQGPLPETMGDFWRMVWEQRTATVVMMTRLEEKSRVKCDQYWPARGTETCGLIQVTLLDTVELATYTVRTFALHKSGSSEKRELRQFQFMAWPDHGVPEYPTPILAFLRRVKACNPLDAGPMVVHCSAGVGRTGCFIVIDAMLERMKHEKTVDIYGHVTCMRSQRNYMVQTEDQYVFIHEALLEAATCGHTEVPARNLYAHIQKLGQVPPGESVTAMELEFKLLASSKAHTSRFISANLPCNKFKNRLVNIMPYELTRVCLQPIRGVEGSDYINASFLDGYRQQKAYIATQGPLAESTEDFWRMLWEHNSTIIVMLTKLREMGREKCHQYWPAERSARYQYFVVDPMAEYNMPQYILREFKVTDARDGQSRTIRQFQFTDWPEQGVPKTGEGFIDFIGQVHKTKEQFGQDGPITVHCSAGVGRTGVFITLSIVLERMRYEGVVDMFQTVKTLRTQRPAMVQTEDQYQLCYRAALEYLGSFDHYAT

EC50 (PTP1B(C215S)): 1.16 nM
EC50 (PTP1B(D181A)): 0.508 nM
Molecule: CC[C@H](C)[C@H](NC(=O)[C@H](CC(=O)O)NC(=O)[C@H](CCCNC(=N)N)NC(=O)[C@@H](NC(=O)c1ccc2c(c1)C(=O)OC21c2ccc(O)cc2Oc2cc(O)ccc21)[C@@H](C)O)C(=O)N[C@@H](Cc1ccc(OP(=O)(O)O)cc1)C(=O)N[C@@H](CCC(=O)O)C(=O)N[C@H](C(=O)N[C@@H](CC(=O)O)C(=O)N[C@@H](Cc1ccc(O)cc1)C(=O)N[C@@H](Cc1ccc(O)cc1)C(=O)N[C@@H](CCCNC(=N)N)C(=O)O)[C@@H](C)O [F-IR-P, T-R-D-1-pY-E-T-D-Y-Y-R]
Km (LAR): 27 µM

Peak Mp [1]: 269 mP
Peak Mp [2]: 132 mP
EC50 [3]: 1.07 nM
EC50 [4]: 0.508 nM
Molecule: PTP1B(D181A), amino acids 1-321 (from UniProt P18031 1-321) (enzyme)

IC50 (C215S PTP1B): 150000 nM
IC50 (D181A PTP1B; [7]): 120000 nM
Molecule: N[C@@H](Cc1ccc(OP(=O)(O)O)cc1)C(=O)O [P-Tyr, phosphotyrosine]

maximum polarization value for bound peptide [6]: 300 mP
Peak mP [1]: 316 mP
Peak mP [2]: 151 mP
EC50 [3]: 0.965 nM
EC50 [4]: 1.16 nM
B2: PTP1B(C215S), amino acids 1-321 (protein)
chain: T1 sequence (P18031 1-321) with C215S
termination of PTP1B-mediated dephosphorylation of F-ERP-P [5]: monoclonal antiphosphotyrosine antibody G104 and the C215S-PTP1B binding mutant were equally effective at stopping the dephosphorylation reaction
stopping of the dephosphorylation reaction (reaction terminator) (PTP1B; reactions stopped after 11 min, polarization stable for 14 hours): equally effective at stopping the dephosphorylation reaction

Second part, the molecule before the results:

Molecule: [Na+].[Na+].[Na+].[O]=[V]([O-])([O-])[O-] [sodium ortho vanadate]
effect of inclusion in the terminator mixes on observed endpoints (PTP1B; 2 mM in terminator solution with C215S PTP1B or G104): did not appear to have any additive effect

Molecule: OO [H2O2, hydrogen peroxide]
IC50 (C215S PTP1B): 250000 nM
IC50 (D181A PTP1B; [7]): 10000 nM
IC50 (D181A PTP1B; read-out: IC50 for inhibition of the DA substrate binding mutant): ~10000 nM

Molecule: A-T-E-G-Q-pY-Q-P-Q-P (ATEGQ[pY]QPQP; also: fluorescein label) [F-lck-P]
Km (CD45): 130 µM

B1: PTP1B (wild type), amino acids 1-321 (protein)
chain: T1 sequence (P18031 1-321)
time to complete dephosphorylation of F-ERP-P (fluorescence polarization catalytic assay) [5]: under these conditions the dephosphorylation of F-ERP-P was complete by 20 minutes
